Laboratory results: patent US20110182887A1 (AstraZeneca / MedImmune, published 2011)
Substitutions are numbered along the chain they refer to. Names may count otherwise. One block for each binder: values may come before it.

Columns and labels:
[1] = molecular target: T1, human CD22 (hCD22) expressed on the cell surface (human, UniProt P20273 20-847); assay: cell ELISA on BHK cells expressing human CD22, COS-7 supernatant, OD 655 nm
T1 construct: whole, on cells; One molecule is used for all cell-surface formats; also called human CD22 antigen; BHK-CD22

[2] = molecular target: T1, human CD22 (hCD22) expressed on the …; assay: cell ELISA on BHK cells expressing human CD22, RHOv2 heavy chain expressed with the RKC light chain in COS cells
[3] = molecular target: T1, human CD22 (hCD22) expressed on the …; assay: cell ELISA on BHK cells expressing human CD22, COS-7 supernatant, OD 655 nm; remark: listed apart in the source
[4] = molecular target: T1, human CD22 (hCD22) expressed on the …; assay: cell ELISA on BHK cells expressing human CD22, RHOv2A heavy chain expressed with the RKC light chain in COS cells
[5] = molecular target: hCD22 (ligand immobilised on the BIAcore CM5 sensor chip) (human, UniProt P20273 20-687, limits assumed); assay: SPR (BIAcore 3000), hCD22 immobilised on CM5 chip, IgG injected, 1:1 model
Description: Binding affinity of HB22.7 and RHOv2ACD/RKA were determined on a BIAcore 3000 instrument (BIAcore, Inc., Uppsala, Sweden). The ligand, hCD22, was prepared at 50 nM in 10 mM NaOAc, pH4 buffer. It was injected onto an EDC/NHS-activated CM5 sensor chip (BIAcore, Inc. Uppsala, Sweden) using a standard immobilization protocol. Following this, any unreacted active ester moieties were quenched using 1M Et-NH2 (ethanolamine; coupling reagents purchased from BIAcore, Inc.). A total of 535 and 689 RUs hCD22 remained bound to two sensor chip surfaces used in these experiments. Separately, a blank surface was prepared on each sensor chip using the identical protocol (minus protein). The blank surfaces were used as a reference cell in the experiments, and served to correct for both non-specific binding and some housekeeping artifacts.
For the kinetic experiments, HB22.7 and RHOv2ACD/RKA were prepared as two dilution series, starting at 22 nM and 100 nM, then diluted three- and two-fold, respectively, down to final concentrations of 0.03 nM and 0.39 nM in HBS-EP buffer (BIAcore, Inc., consisting of the following: 10 mM HEPES buffer, pH7.4, 150 mM NaCl, 3 mM EDTA, and 0.005% P20). Each concentration of IgG was then injected over both the CD22 and reference cell surfaces, which are connected in series. Between injections, surfaces were regenerated with a 1-minute injection of 3M MgCl2.

[6] = molecular target: T1, human CD22 (hCD22) expressed on the …; assay: cell ELISA on BHK cells expressing human CD22, OD 655 nm
[7] = molecular target: T1, human CD22 (hCD22) expressed on the …; assay: cell ELISA on BHK cells expressing human CD22, RHOv2D heavy chain expressed with the RKC light chain in COS cells
[8] = molecular target: T1, human CD22 (hCD22) expressed on the …; assay: cell ELISA on BHK cells expressing human CD22, OD 655 nm; remark: listed apart in the source
[9] = molecular target: T1, human CD22 (hCD22) expressed on the …; assay: cell ELISA on BHK cells expressing human CD22, RHOv2B heavy chain expressed with the RKC light chain in COS cells
[10] = molecular target: T1, human CD22 (hCD22) expressed on the …; assay: cell ELISA on BHK cells expressing human CD22, RHOv2C heavy chain expressed with the RKC light chain in COS cells
[11] = molecular target: T1, human CD22 (hCD22) expressed on the …; assay: cell ELISA on BHK cells expressing human CD22, OD 655 nm; remark: listed apart in the source
[12] = molecular target: T1, human CD22 (hCD22) expressed on the …; assay: as above; remark: listed apart in the source
[13] = molecular target: T1, human CD22 (hCD22) expressed on the …; assay: cell ELISA on BHK cells expressing human CD22, COS-7 supernatant, goat anti-human Ig-HRP, OD 450 nm
From the text: The BHK-CD22 binding assay was used to test the binding activity of the chHB227 antibody in the transiently transformed COS 7 culture supernatants. A goat anti-human Ig-HRP conjugate (Sigma Chemicals) was used to detect binding of chHB22.7 mAb while a goat anti-mouse Ig-HRP conjugate (Southern Biotechnology) was used to detect binding of the parental mouse HB22.7 mAb. The bound HRP conjugates were exposed to the substrate o-phenyldiamine (OPD) and the resulting products detected at 450 nm.

[14] = molecular target: T1, human CD22 (hCD22) expressed on the …; assay: cell ELISA on BHK cells expressing human CD22, COS-7 supernatant, OD 655 nm; remark: listed apart in the source

B2: HB227RHOv2 + HB227RKC humanized antibody (antibody, human IgG1, V domains shown)
VH: QVQLEESGGGVVRPGRSLRLSCAASGFTLSDYGVNWIRQAPGKGLEWVGIIWGDGRTDYNSALKSRLTVSRNNSNNTLSLQMNSLTTEDTAVYYCVRAPGNRAMEYWGQGVLVTVS
VL: DIVMTQSPSSLSASVGDRVTITCKASQSVTNDVAWYQQKPGKAPKLLIYYASNRYTGVPDRFSGSGYGTDFTLTISSLQPEDFATYFCQQDYRSPWTFGGGTKVEIKR
notes: Human IgG1 kappa, COS-7 supernatant; Carries all four VH back mutations: F29L, D30S, T49G, F67L; also called RHOv2+RKC
binding result [2]: binds

B3: HB227RHO + HB227RKC humanized antibody (antibody, human IgG1, V domains shown)
VH: B2 VH
VL: B2 VL
notes: Human IgG1 kappa, COS-7 supernatant; also called RHO+RKC
binding result [1]: binds

B6: HB227RHC + HB227RKC humanized antibody (antibody, human IgG1, V domains shown)
VH: QVQLQESGPALVKPTQTLTLTCTFSGFSLSDYGVNWIRQPPGKALEWLGIIWGDGRTDYNSALKSRLSISKDNSKNQVVLRMTNVDPVDTATYFCARAPGNRAMEYWGQGTVVTVSS
VL: B2 VL
notes: Human IgG1 kappa, COS-7 supernatant; also called RHC+RKC
binding result [1]: binds

B7: HB227RHOv2A + HB227RKC humanized antibody (antibody, human IgG1, V domains shown)
VH: B2 VH with L29F
VL: B2 VL
notes: RHOv2 with the F29L back mutation removed; Human IgG1 kappa, COS-7 supernatant; also called HB227v2A
binding result [4]: binds

B8: humanized anti-hCD22 antibody RHOv2ACD/RKA (HB227RHOv2ACD VH + HB227RKA VK) (antibody, human IgG1, V domains shown)
VH: B2 VH with L29F, G49T, L67F
VL: B2 VL with D60S, Y67S, F87Y
notes: Human IgG1 kappa expression vectors; It was labelled with Alexa-fluor in some cell assays; also called RHOvACD/RKA; RHOACD/RKA
Kd [5]: 22 nM
koff [5]: 0.00069 s⁻¹
kon [5]: 32000 M⁻¹ s⁻¹

B10: HB227RHOv2D + HB227RKC humanized antibody (antibody, human IgG1, V domains shown)
VH: B2 VH with L67F
VL: B2 VL
notes: RHOv2 with the F67L back mutation removed; Human IgG1 kappa, COS-7 supernatant; also called HB227v2D
binding result [7]: binds

B12: HB227RHOv2B + HB227RKC humanized antibody (antibody, human IgG1, V domains shown)
VH: B2 VH with S30D
VL: B2 VL
notes: RHOv2 with the D30S back mutation removed; Human IgG1 kappa, COS-7 supernatant; also called HB227v2B
binding result [9]: binds

B13: HB227RHOv2C + HB227RKC humanized antibody (antibody, human IgG1, V domains shown)
VH: B2 VH with G49T
VL: B2 VL
notes: RHOv2 with the T49G back mutation removed; Human IgG1 kappa, COS-7 supernatant; also called HB227v2C
binding result [10]: binds

B14: chimeric HB22.7 antibody chHB227 (chH + chL) (antibody, V domains shown)
VH: QVQLKESGPGLVAPSQSLSITCTVSGFSLSDYGVNWVRQIPGKGLEWLGIIWGDGRTDYNSALKSRLNISKDNSKSQVFLKMNSLKADDTARYYCARAPGNRAMEYWGQGTSVTVS
VL: SIVMTQTPKFLLVSAGDRITLTCKASQSVTNDVAWYQQKPGQSPKLLIYYASNRYTGVPDRFTGSGYGTDFTFTISTVQAEDLAVYFCQQDYRSPWTFGGGTKLEI
notes: Tested as COS-7 supernatant; also called CH+CK; fully chimeric antibody
EC50 (read off the curve) [11]: ~0.3 µg/mL
EC50 (read off the curve) [12]: ~0.3 µg/mL
EC50 (read off the curve) [6]: ~0.3 µg/mL
EC50 (read off the curve) [3]: ~0.1 µg/mL
EC50 (read off the curve) [1]: ~0.1 µg/mL
EC50 (read off the curve) [13]: ~100 ng/mL

The remaining lines, values ahead:

binding result [1]: binds
B1: HB227RHB + HB227RKC humanized antibody (antibody, human IgG1, V domains shown)
VH: B6 VH with G49A, N73T
VL: B2 VL
notes: Human IgG1 kappa, COS-7 supernatant; also called RHB+RKC

EC50 (read off the curve) [1]: ~0.2 µg/mL
B4: chH/RK (antibody, V domains shown)
VH: QVQLKESGPGLVAPSQSLSITCTVSGFSLSDYGVNWVRQIPGKGLEWLGIIWGDGRTDYNSALKSRLNISKDNSKSQVFLKMNSLKADDTARYYCARAPGNRAMEYWGQGTSVTVSS
VL: B2 VL
notes: also called chH+RKC; chimeric HB22.7 heavy chain (chH) + HB227RKC light chain

EC50 (read off the curve) [3]: ~0.2 µg/mL
B5: HB227RHF + HB227RKC humanized antibody (antibody, human IgG1, V domains shown)
VH: B6 VH with F24V
VL: B2 VL
notes: Human IgG1 kappa, COS-7 supernatant; also called RHF+RKC; humanized (RHF+RKC) antibody

binding result [6]: binds
B9: HB227RHOv2ACD + HB227RKC humanized antibody (antibody, human IgG1, V domains shown)
VH: B2 VH with L29F, G49T, L67F
VL: B2 VL
notes: Human IgG1 kappa, COS-7 supernatant; also called RHOv2ACD+RKC

binding result [8]: binds
B11: HB227RHOv2ABCD + HB227RKC humanized antibody (antibody, human IgG1, V domains shown)
VH: B2 VH with L29F, S30D, G49T, L67F
VL: B2 VL
notes: No VH back mutations; Human IgG1 kappa, COS-7 supernatant; also called RHOv2ABCD+RKC

binding result [14]: binds
B15: HB227RHB heavy chain + chimeric HB22.7 light chain (chL) (antibody, human IgG1, V domains shown)
VH: B6 VH with G49A, N73T
VL: B14 VL
notes: Human IgG1 kappa, COS-7 supernatant; The VH entry may include the leader; also called RHB+chL

binding result [3]: binds
B16: HB227RHF heavy chain + chimeric HB22.7 light chain (chL) (antibody, human IgG1, V domains shown)
VH: B6 VH with F24V
VL: B14 VL
notes: Human IgG1 kappa, COS-7 supernatant; The VH entry may include the leader; also called HB227RHF+chL; RHF+chL
